Positions count from the first letter of the chain named. Each block holds one binder with its values, some of them ahead of it.
Experiments:
Assay in all cases: cell-based or functional assay
human GLP-1 receptor [1] = target: T1, human GLP-1 receptor (human, UniProt P43220 24-463)
human GFRAL [2] = target: T2, human GFRAL (human, UniProt Q6UXV0 19-394)
T2 sequence (looked up): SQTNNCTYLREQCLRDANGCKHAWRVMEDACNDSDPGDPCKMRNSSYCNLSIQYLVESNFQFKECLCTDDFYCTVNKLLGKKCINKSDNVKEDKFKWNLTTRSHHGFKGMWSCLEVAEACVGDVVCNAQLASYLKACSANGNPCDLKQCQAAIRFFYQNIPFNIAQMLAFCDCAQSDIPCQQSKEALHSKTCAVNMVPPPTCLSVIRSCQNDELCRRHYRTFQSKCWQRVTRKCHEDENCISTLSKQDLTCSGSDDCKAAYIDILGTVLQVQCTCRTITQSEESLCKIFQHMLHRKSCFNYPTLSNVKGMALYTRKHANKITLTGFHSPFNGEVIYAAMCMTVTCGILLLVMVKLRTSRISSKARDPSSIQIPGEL

human GLP-1 receptor [3] = target: T1, human GLP-1 receptor; remark: listed apart in the source
human GFRAL [4] = target: T2, human GFRAL; remark: listed apart in the source

B1: MLC105 (ligand)
chain: HGEGTFTSDVSSYLEEQAAKEFIAWLVRGGGGAQPGAQPGAQPGAQPCQAPGAQPGAQPGAQPGQEPGAQPGQEPGAQPGQEPGAQPGQEPGAQPGQEPGAQPGQEPGAQPARQGDHCPLGPGRCCRLHTVRASLEDLGWADWVLSPREVQVTMCIGACPSQFRAANLHAQIKTSLHRLKPDTVPAPCCVPASYNPMVLIQKTDTGVSLQTYDDLLAKDCHCI
modifications: Moiety B (HOOC-(CH2)16-CO-gGlu-2XADO-EDA-CO-CH2) on 17C of Linker (48C of fusion polypeptide)
GLP-1 activity (EC50, pM, 1% HSA) (human GLP-1 receptor [1]): 168 pM | GDF15 activity (EC50, pM, 1% HSA) (human GFRAL [2]): 55.5 pM | GLP-1 activity (EC50, pM) (human GLP-1 receptor [3]): 10 pM | GDF15 activity (EC50, pM) (human GFRAL [4]): 50 pM

B2: MLC088 (ligand)
chain: B1 chain with C48G, Q49A, A50Q, G72C
modifications: Moiety C (HOOC-(CH2)20-CO-gGlu-2XADO-EDA-CO-CH2) on 41C of Linker (72C of fusion polypeptide)
GLP-1 activity (EC50, pM) (human GLP-1 receptor [3]): 1.6 pM | GDF15 activity (EC50, pM) (human GFRAL [4]): 30.2 pM

B3: MLC087 (ligand)
chain: B1 chain with C48G, Q49A, A50Q, G72C
modifications: Moiety B (HOOC-(CH2)16-CO-gGlu-2XADO-EDA-CO-CH2) on 41C of Linker (72C of fusion polypeptide)
GLP-1 activity (EC50, pM, 1% HSA) (human GLP-1 receptor [1]): 24.4 pM | GDF15 activity (EC50, pM, 1% HSA) (human GFRAL [2]): 49.2 pM | GLP-1 activity (EC50, pM) (human GLP-1 receptor [3]): 1.4 pM | GDF15 activity (EC50, pM) (human GFRAL [4]): 23.8 pM

B4: MLC091 (ligand)
chain: B1 chain with C48G, Q49A, A50Q, E66C
modifications: Moiety B (HOOC-(CH2)16-CO-gGlu-2XADO-EDA-CO-CH2) on 35C of Linker (66C of fusion polypeptide)
GLP-1 activity (EC50, pM) (human GLP-1 receptor [3]): 2 pM | GDF15 activity (EC50, pM) (human GFRAL [4]): 34.9 pM

B6: MLC089 (ligand)
chain: B1 chain with C48G, Q49A, A50Q, A69Q, Q70C
modifications: Moiety B (HOOC-(CH2)16-CO-gGlu-2XADO-EDA-CO-CH2) on 39C of Linker (70C of fusion polypeptide)
GLP-1 activity (EC50, pM, 1% HSA) (human GLP-1 receptor [1]): 24.4 pM | GDF15 activity (EC50, pM, 1% HSA) (human GFRAL [2]): 66.2 pM | GLP-1 activity (EC50, pM) (human GLP-1 receptor [3]): 1.2 pM | GDF15 activity (EC50, pM) (human GFRAL [4]): 42.9 pM

B7: MLC092 (ligand)
chain: B1 chain with C48G, Q49A, A50Q, E66C
modifications: Moiety C (HOOC-(CH2)20-CO-gGlu-2XADO-EDA-CO-CH2) on 35C of Linker (66C of fusion polypeptide)
GLP-1 activity (EC50, pM) (human GLP-1 receptor [3]): 2.2 pM | GDF15 activity (EC50, pM) (human GFRAL [4]): 48.6 pM

B9: MLC090 (ligand)
chain: B1 chain with C48G, Q49A, A50Q, A69Q, Q70C
modifications: Moiety C (HOOC-(CH2)20-CO-gGlu-2XADO-EDA-CO-CH2) on 39C of Linker (70C of fusion polypeptide)
GLP-1 activity (EC50, pM) (human GLP-1 receptor [3]): 1.5 pM | GDF15 activity (EC50, pM) (human GFRAL [4]): 23.6 pM

B12: MLC093 (ligand)
chain: B1 chain with C48G, Q49A, A50Q, G64C
modifications: Moiety B (HOOC-(CH2)16-CO-gGlu-2XADO-EDA-CO-CH2) on 33C of Linker (64C of fusion polypeptide)
GLP-1 activity (EC50, pM, 1% HSA) (human GLP-1 receptor [1]): 27.3 pM | GDF15 activity (EC50, pM, 1% HSA) (human GFRAL [2]): 67.6 pM | GLP-1 activity (EC50, pM) (human GLP-1 receptor [3]): 1.4 pM | GDF15 activity (EC50, pM) (human GFRAL [4]): 54.8 pM

B15: MLC005 (ligand)
chain: HGEGTFTSDVSSYLEEQAAREFIAWLVRGGGGQEPGQEPGQEKGQEPGQEPGQEPGQEPGQEPGAQPGAQPARQGDHCPLGPGRCCRLHTVRASLEDLGWADWVLSPREVQVTMCIGACPSQFRAANLHAQIKTSLHRLRPDTVPAPCCVPASYNPMVLIQRTDTGVSLQTYDDLLARDCHCI
modifications: Moiety A (HOOC-(CH2)16-CO-gGlu-2XADO) on 12K of Linker (43K of fusion polypeptide)
GLP-1 activity (EC50, pM) (human GLP-1 receptor [3]): 3 pM | GDF15 activity (EC50, pM) (human GFRAL [4]): 20.3 pM

Results, then the binder that gave them:

GLP-1 activity (EC50, pM, 1% HSA) (human GLP-1 receptor [1]): 434 pM | GDF15 activity (EC50, pM, 1% HSA) (human GFRAL [2]): 70.2 pM
B5: MLC122 (ligand)
chain: B1 chain with G36C, A37Q, Q38A, C48G, Q49A, A50Q
modifications: Moiety B (HOOC-(CH2)16-CO-gGlu-2XADO-EDA-CO-CH2) on 5C of Linker (36C of fusion polypeptide)

GLP-1 activity (EC50, pM, 1% HSA) (human GLP-1 receptor [1]): 872 pM | GDF15 activity (EC50, pM, 1% HSA) (human GFRAL [2]): 72.8 pM
B8: MLC127 (ligand)
chain: B1 chain with K20C, C48G, Q49A, A50Q
modifications: Moiety B (HOOC-(CH2)16-CO-gGlu-2XADO-EDA-CO-CH2) on 26C of GLP-1 (20C of fusion polypeptide)

GLP-1 activity (EC50, pM, 1% HSA) (human GLP-1 receptor [1]): 39.9 pM | GDF15 activity (EC50, pM, 1% HSA) (human GFRAL [2]): 58 pM | GLP-1 activity (EC50, pM) (human GLP-1 receptor [3]): 1.1 pM | GDF15 activity (EC50, pM) (human GFRAL [4]): 59.3 pM
B10: MLC107 (ligand)
chain: B1 chain with C48G, Q49A, A50Q, G56C, A57Q, Q58A
modifications: Moiety B (HOOC-(CH2)16-CO-gGlu-2XADO-EDA-CO-CH2) on 25C of Linker (56C of fusion polypeptide)

GLP-1 activity (EC50, pM, 1% HSA) (human GLP-1 receptor [1]): 9.67 pM | GDF15 activity (EC50, pM, 1% HSA) (human GFRAL [2]): 1670 pM
B11: MLC126 (ligand)
chain: B1 chain with C48G, Q49A, A50Q, G104C
modifications: Moiety B (HOOC-(CH2)16-CO-gGlu-2XADO-EDA-CO-CH2) on 73C of Linker (104C of fusion polypeptide)

GLP-1 activity (EC50, pM, 1% HSA) (human GLP-1 receptor [1]): 7.52 pM | GDF15 activity (EC50, pM, 1% HSA) (human GFRAL [2]): 194 pM | GLP-1 activity (EC50, pM) (human GLP-1 receptor [3]): 11 pM | GDF15 activity (EC50, pM) (human GFRAL [4]): 54.9 pM
B13: MLC111 (ligand)
chain: B1 chain with C48G, Q49A, A50Q, E82C, A85Q, Q86E
modifications: Moiety B (HOOC-(CH2)16-CO-gGlu-2XADO-EDA-CO-CH2) on 51C of Linker (82C of fusion polypeptide)

GLP-1 activity (EC50, pM, 1% HSA) (human GLP-1 receptor [1]): 9.53 pM | GDF15 activity (EC50, pM, 1% HSA) (human GFRAL [2]): 1360 pM
B14: MLC123 (ligand)
chain: B1 chain with C48G, Q49A, A50Q, A109Q, Q110C
modifications: Moiety B (HOOC-(CH2)16-CO-gGlu-2XADO-EDA-CO-CH2) on 79C of Linker (110C of fusion polypeptide)
